Assay results from PMC6028919, “Scc2 Is a Potent Activator of Cohesin’s ATPase that Promotes Loading by Binding Scc1 without Pds5” (Molecular Cell, 2018).

B1: His6-Pds5 (natural protein)
chain: MAKGAVTKLKFNSPIISTSDQLISTNELLDRLKALHEELASLDQDNTDLTGLDKYRDALVSRKLLKHKDVGIRAFTACCLSDILRLYAPDAPYTDAQLTDIFKLVLSQFEQLGDQENGYHIQQTYLITKLLEYRSIVLLADLPSSNNLLIELFHIFYDPNKSFPARLFNVIGGILGEVISEFDSVPLEVLRLIFNKFLTYNPNEIPEGLNVTSDCGYEVSLILCDTYSNRMSRHLTKYYSEIIHEATNDDNNSRLLTVVVKLHKLVLRLWETVPELINAVIGFIYHELSSENELFRKEATKLIGQILTSYSDLNFVSTHSDTFKAWISKIADISPDVRVEWTESIPQIIATREDISKELNQALAKTFIDSDPRVRRTSVMIFNKVPVTEIWKNITNKAIYTSLLHLAREKHKEVRELCINTMAKFYSNSLNEIERTYQNKEIWEIIDTIPSTLYNLYYINDLNINEQVDSVIFEYLLPFEPDNDKRVHRLLTVLSHFDKKAFTSFFAFNARQIKISFAISKYIDFSKFLNNQESMSSSQGPIVMNKYNQTLQWLASGLSDSTKAIDALETIKQFNDERIFYLLNACVTNDIPFLTFKNCYNELVSKLQTPGLFKKYNISTGASIMPRDIAKVIQILLFRASPIIYNVSNISVLLNLSNNSDAKQLDLKRRILDDISKVNPTLFKDQIRTLKTIIKDLDDPDAEKNDNLSLEEALKTLYKASKTLKDQVDFDDTFFFTKLYDFAVESKPEITKYATKLIALSPKAEETLKKIKIRILPLDLQKDKYFTSHIIVLMEIFKKFPHVLNDDSTDIISYLIKEVLLSNQVVGDSKKEIDWVEDSLLSDTKYSAIGNKVFTLKLFTNKLRSIAPDVPRDELAESFTEKTMKLFFYLIASGGELISEFNKEFYPTPSNYQTKLRCVAGIQVLKLARISNLNNFIKPSDIIKLINLVEDESLPVRKTFLEQLKDYVANELISIKFLPLVFFTAYEPDVELKTTTKIWINFTFGLKSFKKGTIFERALPRLIHAIAHHPDIVGGLDSEGDAYLNALTTAIDYLLFYFDSIAAQENFSLLYYLSERVKNYQDKLVEDEIDEEEGPQKEEAPKKHRPYGQKMYIIGELSQMILLNLKEKKNWQHSAYPGKLNLPSDLFKPFATVQEAQLSFKTYIPESLTEKIQNNIKAKIGRILHTSQTQRQRLQKRLLAHENNESQKKKKKVHHARSQADDEEGDGDRESDSDDDSYSPSNKNETKKGHENIVMKKLRVRKEVDYKDDEDDDIEMT
B2: GFP-ΔN132-Scc2-1xStrepII (domain or fragment, S. cerevisiae, UniProt Q04002 133-1493, looked up)
chain: KSEIVSRPEAKHKLESVTSNAGNLSFNDNSSNKKTKTSTGVTMTQANLAEQYLNDLKNILDIVGFDQNSAEIGNIEYWLQLPNKKFVLTTNCLTKLQMTIKNITDNPQLSNSIEITWLLRLLDVMVCNIKFSKSSLKMGLDDSMLRYIALLSTIVLFNIFLLGKNDSNLHRESYIMEPVNFLSDLIESLKILTIEYGSLKIEFDTFQEALELLPKYIRNGPFLDDNVTAKLVYIFSDLLMNNDIEATTNIQFQSFWDNVKRISSDILVSLFGSFDQQRGFIIEELLSHIEKLPTKRIQKKLRKVGNQNIYITDFTFTLMSMLENINCYSFCNQMKDIAPENIDLLKNEYKKQEEFLFNIVEHINDTILERFFKNPSALRYVIDNFVQDLLLLISSPQWPVTEKILSSLLKRLLSVYSPSMQVSANIETICLQLIGNIGSTIFDIKCSTRDHEDNNLIKMINYPETLPHFFKSFEECIAYNETIKCRRSATRFLWNLRLGTILILEEYTKDAKEQIITVDNELKKILEQIKDGGLGPELENREADFSTIKLDYFSILHAFELLNLYDPYLKLILSLLAKDKIKLRSTAIKCLSMLASKDKVILSNPMVKETIHRRLNDSSASVKDAILDLVSINSSYFEFYQQINNNYNDDSIMVRKHVLRINEKMYDETNDIVTKVYVIARILMKIEDEEDNIIDMARLILLNRWILKVHEVLDQPEKLKEISSSVLLVMSRVAIMNEKCSQLFDLFLNFYLLNKEAHSKEAYDKITHVLTILTDFLVQKIVELNSDDTNEKNSIVDKQNFLNLLAKFADSTVSFLTKDHITALYPYMVSDEKSDFHYYILQVFRCTFEKLANFKQKFLYDLETTLLSRLPKMNVREIDEAMPLIWSVATHRHDTARVAKACSSCLSHLHPYINKANNEEAAIVVDGKLQRLIYLSTGFARFCFPKPSNDKIAFLQEGETLYEHITKCLLVLSKDKITHVIRRVAVKNLTKLCGNHPKLFNSRHVLHLLDKEFQSDQLDIKLVILESLYDLFLLEERKSVRNTGVNSTLSSNSILKKKLLKTNRVEFANDGVCSALATRFLDNILQLCLLRDLKNSLVAIRLLKLILKFGYTNPSHSIPTVIALFASTSQYIRHVAYELLEDLFEKYETLVFSSLSRGVTKAIHYSIHTDEKYYYKHDHFLSLLEKLCGTGKKNGPKFFKVLKRIMQSYLDDITDLTSTNSSVQKSIFVLCTNISNITFVSQYDLVSLLKTIDLTTDRLKEVIMDEIGDNVSSLSVSEEKLSGIILIQLSLQDLGTYLLHLYGLRDDVLLLDIVEESELKNKQLPAKKPDISKFSAQLENIEQYSSNGKLLTYFRKHVKDT
notes: Scc2, S. cerevisiae, synthetic codon-optimised gene; also called GFP-Scc2; Scc2-GFP; source: Sf9, baculovirus, purified (StrepTrap, gel filtration); not shown: GFP, N-terminal, kept; StrepII, C-terminal, kept

How the values were obtained:
[1] = target: cohesin tetramer (Smc1, Smc3, Scc1, Scc3) (S. cerevisiae) (UniProt P32908)
Sequence of cohesin tetramer (Smc1, Smc3, Scc1, Scc3) (S. cerevisiae) (P32908 whole entry, chain 1 of 4): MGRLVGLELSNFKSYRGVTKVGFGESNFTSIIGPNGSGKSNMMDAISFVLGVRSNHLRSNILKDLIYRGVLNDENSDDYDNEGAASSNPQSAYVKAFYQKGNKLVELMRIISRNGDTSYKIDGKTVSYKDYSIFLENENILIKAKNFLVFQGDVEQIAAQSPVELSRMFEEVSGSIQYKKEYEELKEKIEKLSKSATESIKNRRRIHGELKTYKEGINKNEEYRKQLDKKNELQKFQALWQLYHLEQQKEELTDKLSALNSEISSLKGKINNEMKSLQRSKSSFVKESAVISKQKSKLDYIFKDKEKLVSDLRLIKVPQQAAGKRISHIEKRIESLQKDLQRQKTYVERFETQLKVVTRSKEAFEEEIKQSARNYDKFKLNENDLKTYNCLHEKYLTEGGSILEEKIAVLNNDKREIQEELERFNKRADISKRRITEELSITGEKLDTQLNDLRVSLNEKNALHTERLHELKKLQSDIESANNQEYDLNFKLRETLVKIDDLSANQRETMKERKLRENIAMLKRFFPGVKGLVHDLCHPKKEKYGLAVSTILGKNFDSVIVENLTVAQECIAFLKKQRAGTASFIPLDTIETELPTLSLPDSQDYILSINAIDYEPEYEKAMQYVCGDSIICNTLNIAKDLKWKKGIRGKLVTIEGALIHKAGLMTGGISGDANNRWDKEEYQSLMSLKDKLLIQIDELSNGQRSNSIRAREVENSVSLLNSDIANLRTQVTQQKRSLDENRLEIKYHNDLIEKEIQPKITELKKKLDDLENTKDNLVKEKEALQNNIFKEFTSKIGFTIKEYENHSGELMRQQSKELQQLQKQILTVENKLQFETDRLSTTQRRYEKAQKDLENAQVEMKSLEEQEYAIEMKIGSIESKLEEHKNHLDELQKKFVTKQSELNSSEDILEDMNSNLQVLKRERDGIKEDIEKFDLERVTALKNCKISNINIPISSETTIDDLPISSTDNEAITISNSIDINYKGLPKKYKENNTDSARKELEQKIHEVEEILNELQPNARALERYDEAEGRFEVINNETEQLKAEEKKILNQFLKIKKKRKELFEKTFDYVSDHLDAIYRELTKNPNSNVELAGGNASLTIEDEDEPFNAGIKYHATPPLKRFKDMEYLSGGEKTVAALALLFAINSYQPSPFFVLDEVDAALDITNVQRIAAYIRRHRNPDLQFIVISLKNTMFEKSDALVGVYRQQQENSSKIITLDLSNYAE
Sequence of cohesin tetramer (Smc1, Smc3, Scc1, Scc3) (S. cerevisiae) (P47037 whole entry, chain 2 of 4, further chain): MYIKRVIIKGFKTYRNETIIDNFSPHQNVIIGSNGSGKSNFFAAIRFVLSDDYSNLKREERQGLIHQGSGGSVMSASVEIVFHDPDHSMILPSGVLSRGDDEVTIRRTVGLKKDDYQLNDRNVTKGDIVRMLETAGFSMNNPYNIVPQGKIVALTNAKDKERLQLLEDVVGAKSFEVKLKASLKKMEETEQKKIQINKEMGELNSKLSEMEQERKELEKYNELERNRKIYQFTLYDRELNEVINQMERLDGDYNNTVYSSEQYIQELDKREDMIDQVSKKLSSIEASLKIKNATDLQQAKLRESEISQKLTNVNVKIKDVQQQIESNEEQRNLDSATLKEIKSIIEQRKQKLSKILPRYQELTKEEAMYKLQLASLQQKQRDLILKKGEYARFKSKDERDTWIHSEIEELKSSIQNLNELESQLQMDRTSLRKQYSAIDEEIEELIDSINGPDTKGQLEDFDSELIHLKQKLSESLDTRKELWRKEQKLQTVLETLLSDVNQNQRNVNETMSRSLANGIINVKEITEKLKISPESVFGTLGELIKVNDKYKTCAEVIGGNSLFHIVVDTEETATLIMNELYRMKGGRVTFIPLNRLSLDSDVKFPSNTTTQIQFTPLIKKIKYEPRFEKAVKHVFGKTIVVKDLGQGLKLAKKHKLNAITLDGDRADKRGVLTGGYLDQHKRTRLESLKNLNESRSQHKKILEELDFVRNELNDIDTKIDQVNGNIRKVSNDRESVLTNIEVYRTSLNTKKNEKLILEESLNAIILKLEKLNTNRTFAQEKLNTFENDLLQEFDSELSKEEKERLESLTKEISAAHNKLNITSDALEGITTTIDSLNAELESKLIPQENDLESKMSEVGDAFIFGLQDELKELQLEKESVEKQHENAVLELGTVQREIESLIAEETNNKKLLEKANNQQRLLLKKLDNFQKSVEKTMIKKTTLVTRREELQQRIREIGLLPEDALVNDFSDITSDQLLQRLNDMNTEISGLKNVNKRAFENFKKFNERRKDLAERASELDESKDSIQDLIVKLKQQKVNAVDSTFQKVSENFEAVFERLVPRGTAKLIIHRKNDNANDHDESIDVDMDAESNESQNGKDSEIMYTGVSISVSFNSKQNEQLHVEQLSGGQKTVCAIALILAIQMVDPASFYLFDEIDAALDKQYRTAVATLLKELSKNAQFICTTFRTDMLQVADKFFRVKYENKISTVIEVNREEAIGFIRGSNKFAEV
Sequence of cohesin tetramer (Smc1, Smc3, Scc1, Scc3) (S. cerevisiae) (Q12158 whole entry, chain 3 of 4, further chain): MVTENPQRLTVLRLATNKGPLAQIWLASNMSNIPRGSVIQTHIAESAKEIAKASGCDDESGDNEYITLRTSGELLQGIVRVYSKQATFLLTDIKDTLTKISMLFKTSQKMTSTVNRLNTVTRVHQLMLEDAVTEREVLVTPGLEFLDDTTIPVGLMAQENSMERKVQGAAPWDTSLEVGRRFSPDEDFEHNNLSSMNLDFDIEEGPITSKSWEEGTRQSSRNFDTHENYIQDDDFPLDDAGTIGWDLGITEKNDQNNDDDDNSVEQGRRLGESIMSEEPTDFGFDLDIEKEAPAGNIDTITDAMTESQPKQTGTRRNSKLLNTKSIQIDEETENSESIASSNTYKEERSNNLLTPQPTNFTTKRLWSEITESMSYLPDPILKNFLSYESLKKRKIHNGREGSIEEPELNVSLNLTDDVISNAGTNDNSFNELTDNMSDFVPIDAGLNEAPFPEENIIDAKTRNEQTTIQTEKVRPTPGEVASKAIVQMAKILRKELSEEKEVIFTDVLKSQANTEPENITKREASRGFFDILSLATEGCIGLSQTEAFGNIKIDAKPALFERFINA
Sequence of cohesin tetramer (Smc1, Smc3, Scc1, Scc3) (S. cerevisiae) (P40541 whole entry, chain 4 of 4, further chain): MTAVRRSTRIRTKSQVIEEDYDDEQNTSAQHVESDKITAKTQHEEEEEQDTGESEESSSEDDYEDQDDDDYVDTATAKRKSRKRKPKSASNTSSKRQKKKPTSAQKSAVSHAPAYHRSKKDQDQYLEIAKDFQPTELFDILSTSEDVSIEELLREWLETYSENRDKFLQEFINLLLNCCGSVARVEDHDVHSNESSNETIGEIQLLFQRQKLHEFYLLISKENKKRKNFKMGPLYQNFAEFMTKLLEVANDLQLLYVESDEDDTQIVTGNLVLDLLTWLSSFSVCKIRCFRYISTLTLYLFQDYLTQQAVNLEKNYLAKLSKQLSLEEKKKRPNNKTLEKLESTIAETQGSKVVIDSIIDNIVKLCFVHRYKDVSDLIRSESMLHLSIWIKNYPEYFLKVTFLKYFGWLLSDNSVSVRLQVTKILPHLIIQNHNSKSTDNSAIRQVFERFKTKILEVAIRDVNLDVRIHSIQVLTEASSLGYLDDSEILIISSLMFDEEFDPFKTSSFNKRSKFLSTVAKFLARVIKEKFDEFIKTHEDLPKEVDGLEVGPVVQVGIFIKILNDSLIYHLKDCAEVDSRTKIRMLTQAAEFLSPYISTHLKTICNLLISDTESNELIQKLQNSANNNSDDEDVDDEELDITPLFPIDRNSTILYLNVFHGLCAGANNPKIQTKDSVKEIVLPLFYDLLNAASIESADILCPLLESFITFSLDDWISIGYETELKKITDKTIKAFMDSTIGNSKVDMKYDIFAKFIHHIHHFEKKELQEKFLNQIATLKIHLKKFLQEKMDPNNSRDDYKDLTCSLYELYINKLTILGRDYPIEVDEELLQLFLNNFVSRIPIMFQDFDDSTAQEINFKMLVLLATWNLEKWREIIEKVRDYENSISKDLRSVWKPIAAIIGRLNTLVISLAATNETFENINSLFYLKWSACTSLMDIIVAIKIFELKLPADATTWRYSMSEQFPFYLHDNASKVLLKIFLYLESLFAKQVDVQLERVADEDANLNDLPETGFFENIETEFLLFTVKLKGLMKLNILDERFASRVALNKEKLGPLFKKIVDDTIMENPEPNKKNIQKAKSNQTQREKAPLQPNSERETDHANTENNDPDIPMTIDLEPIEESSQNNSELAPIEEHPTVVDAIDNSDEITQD

[2] = target: T1, cohesin tetramer with scc1Δ152–256 (Smc1, Smc3, Scc1Δ152-256, Scc3) (S. cerevisiae, UniProt P32908 1-1225; P47037 1-1230; Q12158 1-566; P40541 1-1150, Δ152-256); assay: co-IP; GFP-Scc2 held by anti-GFP antibody on Protein G Dynabeads; tetramers and GFP-Scc2 in an ATPase reaction, 25°C, 45 min, then beads 45 min at room temperature; washes with 100 mM NaCl; Coomassie-stained SDS-PAGE; conditions: both partners purified
T1 construct: Smc1, S. cerevisiae, synthetic codon-optimised gene; Smc3, S. cerevisiae, synthetic codon-optimised gene; Scc1 (kleisin; Mcd1), S. cerevisiae, synthetic codon-optimised gene; Scc3, S. cerevisiae, synthetic codon-optimised gene; source: Sf9, co-expressed (baculovirus), purified (StrepTrap, gel filtration); not shown: 2xStrepII, C-terminal, kept; copies: + + +

[3] = target: T2, cohesin tetramer (Smc1, Smc3, Scc1, Scc3) (S. cerevisiae, UniProt P32908 1-1225; P47037 1-1230; Q12158 1-566; P40541 1-1150); assay: as above; conditions: both partners purified
T2 construct: Smc1, S. cerevisiae, synthetic codon-optimised gene; Smc3, S. cerevisiae, synthetic codon-optimised gene; Scc1 (kleisin; Mcd1), S. cerevisiae, synthetic codon-optimised gene; Scc3, S. cerevisiae, synthetic codon-optimised gene; also called wild-type tetramers; source: Sf9, co-expressed (baculovirus), purified (StrepTrap, gel filtration); not shown: 2xStrepII, C-terminal, …

Row | Binder | Scc2-stimulated ATPase activity of cohesin tetramers with a three-fold molar excess of Pds5, in the absence of DNA [1] | binding result [2] | binding result [3]
1 | B1 | 2 fold |  | 
2 | B2 |  | binds | binds
